Experimental data reported in the supplement of paper PMC7877785.
± gives the uncertainty stated by the source.

Experiment: self-splicing fitness, log relative to wild type (ln ratio); higher = more splicing; Tetrahymena group I intron in knt gene, E. coli kanamycin selection, DiMSum; sequences stand for … in CUCUCU…GGAGGGAAAAGUUAUCAGGCAUGCACCUGGUAGCUAGUCUUUAAACCAAUAGAUUGCAUCGGUUUAAAAGGCAAGACCGUCAAAUUGCGGGAAAGGGGUCAACAGCCGUUCAGUACCAAGUCUCAGGGGAAACUUUGAGAUGGCCUUGCAAAGGGUAUGGUAAUAAGCUGACGGACAUGGUCCUAACCACGCAGCCAAGUCCUAAGUCAACAGAUCUUCUGUUGAUAUGGAUGCAGUUCACAGACUAAAUGUCGGUCGGGGAAGAUGUAUUCUUCUCAUAAGAUAUAGUCGGACCUCUCCUUAAUGGGAGCUAGCGGAUGAAGUGAUGCAACACUGGAGCCGCUGGGAACUAAUUUGUAUGCGAAAGUAUAUUGAUUAGUUUUGGAGUACUCGUGGUCG
How it was run: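 DiMSum derived fitness as the error-weighted combination of fold changes across replicates, kanamycin versus no kanamycin, normalised to wild type. E. coli BL21(DE3) held the library, which randomised all eight P1ex-region intron nucleotides within the knt kanamycin-resistance gene on pET-22b(+). Six replicate transformations grew overnight at 37°C or 30°C on LB agar with or without 25 μg/mL kanamycin, also containing 100 μg/mL carbenicillin, 50 μM IPTG and 0.2% rhamnose, and pooled colonies were amplicon-sequenced on an Illumina HiSeq 2500.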

| Sequence | self-splicing fitness (ln) (30 °C) | self-splicing fitness (ln) (37 °C) |
| --- | --- | --- |
| GAUUAGCAAUAUUACGCUCG | -1.11 ± 0.12 | -0.397 ± 0.15 |
| GAUUAGCAAUAUUACGCUCU | -1.26 ± 0.41 | -0.272 ± 0.27 |
| GAUUAGCAAUAUUACGGAGA | -2.78 ± 0.25 | -2.19 ± 0.24 |
| GAUUAGCAAUAUUACGGAGU | -2.77 ± 0.19 | -2.5 ± 0.23 |
| GAUUAGCAAUAUUACGGGGG | -4.1 ± 0.34 | -2.72 ± 0.24 |
| GAUUAGCAAUAUUACGGUAA | -1.83 ± 0.23 | -1.5 ± 0.17 |
| GAUUAGCAAUAUUACGGUCU | -3.15 ± 0.32 | -2.07 ± 0.18 |
| GAUUAGCAAUAUUACGUAUU | -3 ± 0.12 | -1.65 ± 0.1 |
| GAUUAGCAAUAUUACGUCCA | -2.04 ± 0.21 | 0.198 ± 0.18 |
| GAUUAGCAAUAUUACGUCGC | -1.91 ± 0.15 | -0.838 ± 0.16 |
| GAUUAGCAAUAUUACGUCGU | -2.56 ± 0.19 | -1.13 ± 0.17 |
| GAUUAGCAAUAUUACGUGAC | -2.89 ± 0.12 | -0.588 ± 0.094 |
| GAUUAGCAAUAUUACGUUGU | -2.91 ± 0.23 | -2.15 ± 0.28 |
| GAUUAGCAAUAUUACGUUUG | -2.64 ± 0.15 | -0.801 ± 0.16 |
| GCAAAGCAAUAUUACGACCA | -0.267 ± 0.15 | -0.678 ± 0.19 |
| GCAAAGCAAUAUUACGAGAG | -2.7 ± 0.095 | -1.89 ± 0.12 |
| GCAAAGCAAUAUUACGAGCU | -3.48 ± 0.16 | -1.5 ± 0.12 |
| GCAAAGCAAUAUUACGAUGC | -3.46 ± 0.24 | -2.53 ± 0.32 |
| GCAAAGCAAUAUUACGCAGA |  | -2.76 ± 0.3 |
| GCAAAGCAAUAUUACGCAGG | -2.33 ± 0.13 | -2.02 ± 0.19 |
| GCAAAGCAAUAUUACGCCUG | -2.21 ± 0.1 | -1.12 ± 0.12 |
| GCAAAGCAAUAUUACGGAAA | -1.88 ± 0.18 | -1.66 ± 0.19 |
| GCAAAGCAAUAUUACGGCAU | -0.675 ± 0.095 | 0.0956 ± 0.1 |
| GCAAAGCAAUAUUACGGGCU | -2.56 ± 0.12 | -2.45 ± 0.2 |
| GCAAAGCAAUAUUACGGGGG | -3.28 ± 0.2 | -1.87 ± 0.18 |

| Sequence | self-splicing fitness (ln) (30 °C) | self-splicing fitness (ln) (37 °C) |
| --- | --- | --- |
| GCAAAGCAAUAUUACGGGGU | -3.73 ± 0.15 | -2.5 ± 0.15 |
| GCAAAGCAAUAUUACGGUCU | -1.38 ± 0.087 | 0.608 ± 0.1 |
| GCAAAGCAAUAUUACGGUGA | -0.987 ± 0.079 | 0.221 ± 0.098 |
| GCAAAGCAAUAUUACGUAGA | -1.64 ± 0.074 | -1.13 ± 0.095 |
| GCAAAGCAAUAUUACGUAGG | -1.52 ± 0.05 | -0.897 ± 0.074 |
| GCAAAGCAAUAUUACGUAUG | -2.9 ± 0.11 | -2.71 ± 0.2 |
| GCAAAGCAAUAUUACGUAUU | -2.65 ± 0.075 | -1.29 ± 0.081 |
| GCAAAGCAAUAUUACGUCAU | -2.25 ± 0.096 | -1.37 ± 0.091 |
| GCAAAGCAAUAUUACGUCGA | -1.83 ± 0.091 | -0.578 ± 0.094 |
| GCAAAGCAAUAUUACGUUGU | -3.71 ± 0.15 | -2.99 ± 0.15 |
| GCAAAGCAAUAUUACGUUUU | -2.95 ± 0.11 | -3 ± 0.18 |
| GCACAGCAAUAUUACGAAUU | -1.19 ± 0.077 | -0.471 ± 0.085 |
| GCACAGCAAUAUUACGAGCC | -3.2 ± 0.28 | -2.01 ± 0.23 |
| GCACAGCAAUAUUACGAGUC | -2.62 ± 0.069 | -1.29 ± 0.065 |
| GCACAGCAAUAUUACGAGUU | -1.81 ± 0.057 | -0.499 ± 0.072 |
| GCACAGCAAUAUUACGAUCA | -0.983 ± 0.13 | -0.209 ± 0.14 |
| GCACAGCAAUAUUACGCACG | -2.06 ± 0.11 | -0.889 ± 0.1 |
| GCACAGCAAUAUUACGCCAU | -3.37 ± 0.12 | -2.42 ± 0.12 |
| GCACAGCAAUAUUACGCCUG | -1.28 ± 0.087 | -0.89 ± 0.1 |
| GCACAGCAAUAUUACGCGUC | -3.73 ± 0.2 | -0.646 ± 0.098 |
| GCACAGCAAUAUUACGCUCA | -1.08 ± 0.088 | -0.585 ± 0.1 |
| GCACAGCAAUAUUACGCUUC | -2.21 ± 0.094 | -1.3 ± 0.098 |
| GCACAGCAAUAUUACGGCUU | -0.432 ± 0.054 | -0.0629 ± 0.064 |
| GCACAGCAAUAUUACGGUUA | -0.902 ± 0.055 | -0.384 ± 0.059 |
| GCACAGCAAUAUUACGUUAA | -1.04 ± 0.055 | -0.544 ± 0.065 |

| Sequence | self-splicing fitness (ln) (30 °C) | self-splicing fitness (ln) (37 °C) |
| --- | --- | --- |
| GCACAGCAAUAUUACGUUUU | -1.14 ± 0.046 | -0.268 ± 0.065 |
| GCAGAGCAAUAUUACGAACA | -3.11 ± 0.4 |  |
| GCAGAGCAAUAUUACGACGU | -0.995 ± 0.14 | -1.5 ± 0.18 |
| GCAGAGCAAUAUUACGAUUG | -4.02 ± 0.28 | -2.95 ± 0.23 |
| GCAGAGCAAUAUUACGCACA | -2.09 ± 0.24 |  |
| GCAGAGCAAUAUUACGCAGU | -3.61 ± 0.29 | -1.86 ± 0.3 |
| GCAGAGCAAUAUUACGCCAU | -3.75 ± 0.4 | -2.78 ± 0.32 |
| GCAGAGCAAUAUUACGCCGA |  | -0.676 ± 0.34 |
| GCAGAGCAAUAUUACGCCUA |  | -2.09 ± 0.3 |
| GCAGAGCAAUAUUACGCUAG | -1.83 ± 0.44 | -1.79 ± 0.2 |
| GCAGAGCAAUAUUACGCUUA | -1.76 ± 0.3 | -1.99 ± 0.3 |
| GCAGAGCAAUAUUACGGCAA | -3.59 ± 0.46 | -3.6 ± 0.42 |
| GCAGAGCAAUAUUACGGGGU | -3.34 ± 0.23 | -3.16 ± 0.31 |
| GCAGAGCAAUAUUACGUAUA | -1.41 ± 0.22 | -2.76 ± 0.47 |
| GCAGAGCAAUAUUACGUCUC |  | -2.17 ± 0.31 |
| GCAGAGCAAUAUUACGUUCG | -1.91 ± 0.14 | -1.99 ± 0.3 |
| GCAUAGCAAUAUUACGAACC | -1.45 ± 0.089 | 0.452 ± 0.1 |
| GCAUAGCAAUAUUACGAACU | -1.11 ± 0.084 | -0.315 ± 0.11 |
| GCAUAGCAAUAUUACGACAC | 0.147 ± 0.14 | -0.214 ± 0.19 |
| GCAUAGCAAUAUUACGACCC | -0.0863 ± 0.27 | 0.324 ± 0.39 |
| GCAUAGCAAUAUUACGAGAC | -2.7 ± 0.32 | -1.59 ± 0.23 |
| GCAUAGCAAUAUUACGAUCA | -2.05 ± 0.34 | 0.131 ± 0.22 |
| GCAUAGCAAUAUUACGCAUC | -3.1 ± 0.23 | -3.22 ± 0.27 |
| GCAUAGCAAUAUUACGCGUU | -2.03 ± 0.11 | -2.14 ± 0.17 |
| GCAUAGCAAUAUUACGCUAA | -2.72 ± 0.27 | -2.49 ± 0.22 |

| Sequence | self-splicing fitness (ln) (30 °C) | self-splicing fitness (ln) (37 °C) |
| --- | --- | --- |
| GCAUAGCAAUAUUACGCUUA | -1.6 ± 0.14 | -1.18 ± 0.1 |
| GCAUAGCAAUAUUACGGACC | -0.439 ± 0.1 | -0.576 ± 0.093 |
| GCAUAGCAAUAUUACGGAGG | -3.03 ± 0.12 | -3.37 ± 0.21 |
| GCAUAGCAAUAUUACGGCAA | -1.49 ± 0.18 | -0.271 ± 0.17 |
| GCAUAGCAAUAUUACGGCUC | 0.0416 ± 0.087 | -0.0445 ± 0.088 |
| GCAUAGCAAUAUUACGGGUA | -0.992 ± 0.12 | -1.11 ± 0.11 |
| GCAUAGCAAUAUUACGGGUG | -2.29 ± 0.13 | -1.82 ± 0.12 |
| GCAUAGCAAUAUUACGGUCA | -0.966 ± 0.09 | -0.953 ± 0.096 |
| GCAUAGCAAUAUUACGGUCG | -1.77 ± 0.12 | -1.12 ± 0.12 |
| GCAUAGCAAUAUUACGGUUU | -1.62 ± 0.08 | -0.625 ± 0.085 |
| GCAUAGCAAUAUUACGUAAU | -2.58 ± 0.1 | -0.793 ± 0.096 |
| GCAUAGCAAUAUUACGUCUC | -1.85 ± 0.14 | -0.552 ± 0.11 |
| GCAUAGCAAUAUUACGUGAG | -0.159 ± 0.069 | -0.351 ± 0.083 |
| GCAUAGCAAUAUUACGUGCC | -3.42 ± 0.21 | -1.03 ± 0.29 |
| GCAUAGCAAUAUUACGUUAA | -2.44 ± 0.19 | -1.81 ± 0.15 |
| GCCAAGCAAUAUUACGAAAC | -2.15 ± 0.14 | -0.23 ± 0.14 |
| GCCAAGCAAUAUUACGAAAU | -3.24 ± 0.19 | -2.28 ± 0.18 |
| GCCAAGCAAUAUUACGACCG | -3.81 ± 0.22 | -2.01 ± 0.12 |
| GCCAAGCAAUAUUACGACGU | -0.238 ± 0.099 | 0.0827 ± 0.088 |
| GCCAAGCAAUAUUACGAGAA | -2.69 ± 0.4 | -0.69 ± 0.35 |
| GCCAAGCAAUAUUACGAGAU | -2.41 ± 0.14 | -2.1 ± 0.17 |
| GCCAAGCAAUAUUACGAGGG | -2.8 ± 0.094 | -1.82 ± 0.11 |
